Two molecules from patent US20200079868A1 (UNIVERSITY OF SOUTHERN CALIFORNIA, published 2020) can be followed below.

The assay deals with T1, CD20 (B-lymphocyte antigen CD20) on CD20+ human lymphoma cells (Raji, SU-DHL-7) (human, UniProt P11836 1-297).
T1 sequence (looked up): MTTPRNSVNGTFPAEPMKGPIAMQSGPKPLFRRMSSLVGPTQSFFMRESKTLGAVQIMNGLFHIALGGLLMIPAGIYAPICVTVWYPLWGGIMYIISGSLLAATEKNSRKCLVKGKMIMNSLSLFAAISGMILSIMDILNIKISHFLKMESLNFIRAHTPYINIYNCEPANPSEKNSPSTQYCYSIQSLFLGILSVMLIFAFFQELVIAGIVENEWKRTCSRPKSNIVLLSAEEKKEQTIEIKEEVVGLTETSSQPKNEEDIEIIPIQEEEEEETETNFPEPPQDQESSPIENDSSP
As to the kind of experiment: cell-based or functional assay.

B1: Rituximab (antibody, V domains shown)
VH: QVQLQQPGAELVKPGASVKMSCKASGYTFTSYNMHWVKQTPGRGLEWIGAIYPGNGDTSYNQKFKGKATLTADKSSSTAYMQLSSLTSEDSAVYYCARSTYYGGDWYFNVWGAGTTVTVSA
VL: QIVLSQSPAILSASPGEKVTMTCRASSSVSYIHWFQQKPGSSPKPWIYATSNLASGVPVRFSGSGSGTSYSLTISRVEAEDAATYYCQQWTSNPPTFGGGTKLEIK
In the case of B1, the “IC50, cell viability (MTS/PMS), SU-DHL-7 cells” value stood at 4 µM.

B2: scFv A192 (anti-CD20 scFv-G(VPGAG)192Y fusion) (scFv)
scFv: QVQLQQPGAELVKPGASVKMSCKASGYTFTSYNMHWVKQTPGRGLEWIGAIYPGNGDTSYNQKFKGKATLTADKSSSTAYMQLSSLTSEDSAVYYCARSTYYGGDWYFNVWGAGTTVTVSAGGGGSGGGGSGGGGSQIVLSQSPAILSASPGEKVTMTCRASSSVSYIHWFQQKPGSSPKPWIYATSNLASGVPVRFSGSGSGTSYSLTISRVEAEDAATYYCQQWTSNPPTFGGGTKLEIKRTGVPGAGVPGAGVPGAGVPGAGVPGAGVPGAGVPGAGVPGAGVPGAGVPGAGVPGAGVPGAGVPGAGVPGAGVPGAGVPGAGVPGAGVPGAGVPGAGVPGAGVPGAGVPGAGVPGAGVPGAGVPGAGVPGAGVPGAGVPGAGVPGAGVPGAGVPGAGVPGAGVPGAGVPGAGVPGAGVPGAGVPGAGVPGAGVPGAGVPGAGVPGAGVPGAGVPGAGVPGAGVPGAGVPGAGVPGAGVPGAGVPGAGVPGAGVPGAGVPGAGVPGAGVPGAGVPGAGVPGAGVPGAGVPGAGVPGAGVPGAGVPGAGVPGAGVPGAGVPGAGVPGAGVPGAGVPGAGVPGAGVPGAGVPGAGVPGAGVPGAGVPGAGVPGAGVPGAGVPGAGVPGAGVPGAGVPGAGVPGAGVPGAGVPGAGVPGAGVPGAGVPGAGVPGAGVPGAGVPGAGVPGAGVPGAGVPGAGVPGAGVPGAGVPGAGVPGAGVPGAGVPGAGVPGAGVPGAGVPGAGVPGAGVPGAGVPGAGVPGAGVPGAGVPGAGVPGAGVPGAGVPGAGVPGAGVPGAGVPGAGVPGAGVPGAGVPGAGVPGAGVPGAGVPGAGVPGAGVPGAGVPGAGVPGAGVPGAGVPGAGVPGAGVPGAGVPGAGVPGAGVPGAGVPGAGVPGAGVPGAGVPGAGVPGAGVPGAGVPGAGVPGAGVPGAGVPGAGVPGAGVPGAGVPGAGVPGAGVPGAGVPGAGVPGAGVPGAGVPGAGVPGAGVPGAGVPGAGVPGAGVPGAGVPGAGVPGAGVPGAGVPGAGVPGAGVPGAGVPGAGVPGAGVPGAGVPGAGVPGAGVPGAGVPGAGVPGAGVPGAGVPGAGVPGAGVPGAGVPGAGVPGAGVPGAGVPGAGVPGAGVPGAGVPGAGVPGAGVPGAGVPGAGVPGAGVPGAGVPGAGVPGAGVPGAGVPGAGVPGAGVPGAGVPGAGVPGAGVPGAGY
modifications: rhodamine (RHD) labeled in the confocal binding assays; site of the label not stated
Take B2: the “IC50, cell viability (MTS/PMS), Raji cells” value was 32 µM; the “IC50, cell viability (MTS/PMS), SU-DHL-7 cells” value stood at 41 µM; the “IC50, cell viability, SU-DHL-7 cells (figure legend; differs from the text)” value amounted to 4 µM.
